# Literature values as cited in paper PMC8592953.
# pKd: −log10 of the molar value. Where two headings read alike, the source gives them in different places.
# Experiments:
# [1] = biological target: RAGE (soluble) soluble (Homo sapiens) (UniProt Q15109)
# [2] = biological target: RAGE (soluble) soluble (Homo sapiens) (UniProt Q15109); remark: listed apart in the source
# Chain of UniProt Q15109 (Q15109 23-342): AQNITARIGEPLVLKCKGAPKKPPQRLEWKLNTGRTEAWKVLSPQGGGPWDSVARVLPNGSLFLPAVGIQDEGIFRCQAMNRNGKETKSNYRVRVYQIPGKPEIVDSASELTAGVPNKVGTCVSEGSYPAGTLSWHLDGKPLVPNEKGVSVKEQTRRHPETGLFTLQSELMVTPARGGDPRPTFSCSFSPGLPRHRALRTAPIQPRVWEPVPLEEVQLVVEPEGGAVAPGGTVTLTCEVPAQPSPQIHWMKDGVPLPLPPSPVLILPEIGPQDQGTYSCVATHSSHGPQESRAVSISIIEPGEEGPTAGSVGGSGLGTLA
pKd [1],pKd [2],Substance
7.00,,glyoxylic acid-glycated bovine serum albumin (from UniProt P02769)
,6.00,AGE-modified bovine serum albumin (BSA-AGE) (from UniProt P02769)
